The values below come from US20110306550A1.

This test has as its target cellular receptor for the apoE peptide (not named), on cells. Description: competition binding on cells (250,000 cells per well, 4 C); competitor/tracer biotinylated apoE 133-149, detected with 125I-streptavidin.

The term IC50 denotes the concentration needed to halve the response being measured. Read a low IC50 as greater potency. Take LRVRLASHLRKLRKRLL [COG133 (apoE 133-149 peptide), unlabeled]: the IC50 is 4 µM.
